According to paper PMC6712834, “SUMOylation regulates USP5-Cav3.2 calcium channel interactions” (Molecular Brain, 2019):

Molecular target: T1, Cav3.2-GFP tagged calcium channel (human, UniProt O95180 1-2353)
T1 construct: also called Cav3.2 T-type calcium channel; source: tsA-201 cells, transfected (lipofectamine 2000), in lysate; not shown: GFP, C-terminal, kept
Assay: co-IP; tsA-201 cells co-expressing Cav3.2-GFP and mCherry-USP5 (WT or K113R); lysed in modified RIPA buffer (50 mM Tris, 100 mM NaCl, 0.2% Triton X-100, 0.2% NP-40, 10 mM EDTA, pH 7.5); Cav3.2-GFP precipitated with anti-GFP antibody and Protein G/A beads overnight at 4 °C; blot probed with mCherry antibody; densitometry
Conditions: partners not purified

T1 sequence (O95180 whole entry): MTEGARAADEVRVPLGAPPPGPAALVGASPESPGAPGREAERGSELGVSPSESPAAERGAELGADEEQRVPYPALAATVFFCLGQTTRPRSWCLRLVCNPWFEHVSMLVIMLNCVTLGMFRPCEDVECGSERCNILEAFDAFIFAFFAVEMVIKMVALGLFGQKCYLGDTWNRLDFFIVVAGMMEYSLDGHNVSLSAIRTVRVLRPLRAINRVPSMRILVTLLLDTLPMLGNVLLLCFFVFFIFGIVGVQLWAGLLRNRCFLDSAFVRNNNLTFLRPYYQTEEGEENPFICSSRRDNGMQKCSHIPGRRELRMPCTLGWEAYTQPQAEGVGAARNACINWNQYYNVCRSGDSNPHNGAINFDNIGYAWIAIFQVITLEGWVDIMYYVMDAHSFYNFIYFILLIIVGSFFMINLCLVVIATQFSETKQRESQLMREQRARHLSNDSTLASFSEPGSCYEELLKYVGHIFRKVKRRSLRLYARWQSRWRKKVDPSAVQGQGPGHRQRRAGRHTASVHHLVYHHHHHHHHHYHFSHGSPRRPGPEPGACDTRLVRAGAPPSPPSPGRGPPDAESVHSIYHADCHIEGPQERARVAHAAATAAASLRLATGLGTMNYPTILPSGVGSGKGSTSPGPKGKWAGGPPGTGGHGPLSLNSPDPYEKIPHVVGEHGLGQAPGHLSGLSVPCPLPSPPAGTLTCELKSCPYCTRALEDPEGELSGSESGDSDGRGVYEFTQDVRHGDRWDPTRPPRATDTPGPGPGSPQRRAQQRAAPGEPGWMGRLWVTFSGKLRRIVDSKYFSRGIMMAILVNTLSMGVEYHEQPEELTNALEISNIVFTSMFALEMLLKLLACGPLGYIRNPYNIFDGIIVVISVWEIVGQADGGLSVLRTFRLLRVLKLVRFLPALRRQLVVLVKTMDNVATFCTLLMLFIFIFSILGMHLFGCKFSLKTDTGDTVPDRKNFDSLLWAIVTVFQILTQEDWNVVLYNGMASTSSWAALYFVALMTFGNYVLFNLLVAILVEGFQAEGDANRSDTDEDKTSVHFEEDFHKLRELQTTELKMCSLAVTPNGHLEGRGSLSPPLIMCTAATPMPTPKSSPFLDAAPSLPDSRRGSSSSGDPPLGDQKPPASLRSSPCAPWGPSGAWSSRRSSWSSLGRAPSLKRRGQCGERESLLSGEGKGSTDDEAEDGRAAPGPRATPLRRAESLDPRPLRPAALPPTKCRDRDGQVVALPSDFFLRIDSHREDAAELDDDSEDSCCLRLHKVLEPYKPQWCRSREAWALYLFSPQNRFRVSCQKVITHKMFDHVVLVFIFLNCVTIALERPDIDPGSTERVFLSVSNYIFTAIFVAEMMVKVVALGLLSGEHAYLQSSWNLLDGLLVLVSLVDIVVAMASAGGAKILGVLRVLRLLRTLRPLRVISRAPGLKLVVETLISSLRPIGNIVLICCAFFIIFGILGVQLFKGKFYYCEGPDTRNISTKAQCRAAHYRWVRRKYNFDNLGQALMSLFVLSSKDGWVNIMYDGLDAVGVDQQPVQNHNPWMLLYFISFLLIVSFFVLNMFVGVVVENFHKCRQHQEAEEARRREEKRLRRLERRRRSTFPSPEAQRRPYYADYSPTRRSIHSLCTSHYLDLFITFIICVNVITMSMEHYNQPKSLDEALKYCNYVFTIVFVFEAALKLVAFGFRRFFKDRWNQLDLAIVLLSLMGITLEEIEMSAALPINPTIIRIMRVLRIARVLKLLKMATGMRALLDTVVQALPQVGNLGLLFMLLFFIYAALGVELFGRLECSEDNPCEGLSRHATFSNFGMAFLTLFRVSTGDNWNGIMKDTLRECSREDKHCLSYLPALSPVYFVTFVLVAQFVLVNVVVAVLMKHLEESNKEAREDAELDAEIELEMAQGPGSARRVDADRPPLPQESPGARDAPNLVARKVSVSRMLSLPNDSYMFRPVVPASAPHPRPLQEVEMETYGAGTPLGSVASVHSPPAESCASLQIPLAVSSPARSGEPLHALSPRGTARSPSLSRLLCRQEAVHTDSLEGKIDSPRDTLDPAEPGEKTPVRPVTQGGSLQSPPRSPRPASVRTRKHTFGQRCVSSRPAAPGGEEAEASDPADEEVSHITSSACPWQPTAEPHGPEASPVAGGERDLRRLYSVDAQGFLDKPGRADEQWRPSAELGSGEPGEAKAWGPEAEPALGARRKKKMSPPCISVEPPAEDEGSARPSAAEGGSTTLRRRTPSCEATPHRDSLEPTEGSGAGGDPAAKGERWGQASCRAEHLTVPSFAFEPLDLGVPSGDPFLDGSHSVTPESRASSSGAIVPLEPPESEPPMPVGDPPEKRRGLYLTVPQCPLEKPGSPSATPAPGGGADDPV

B1: mCherry tagged USP5-K113R mutant (enzyme, human, UniProt P45974-1 1-858, looked up)
chain: MAELSEEALLSVLPTIRVPKAGDRVHKDECAFSFDTPESEGGLYICMNTFLGFGKQYVERHFNKTGQRVYLHLRRTRRPKEEDPATGTGDPPRKKPTRLAIGVEGGFDLSEERFELDEDVKIVILPDYLEIARDGLGGLPDIVRDRVTSAVEALLSADSASRKQEVQAWDGEVRQVSKHAFSLKQLDNPARIPPCGWKCSKCDMRENLWLNLTDGSILCGRRYFDGSGGNNHAVEHYRETGYPLAVKLGTITPDGADVYSYDEDDMVLDPSLAEHLSHFGIDMLKMQKTDKTMTELEIDMNQRIGEWELIQESGVPLKPLFGPGYTGIRNLGNSCYLNSVVQVLFSIPDFQRKYVDKLEKIFQNAPTDPTQDFSTQVAKLGHGLLSGEYSKPVPESGDGERVPEQKEVQDGIAPRMFKALIGKGHPEFSTNRQQDAQEFFLHLINMVERNCRSSENPNEVFRFLVEEKIKCLATEKVKYTQRVDYIMQLPVPMDAALNKEELLEYEEKKRQAEEEKMALPELVRAQVPFSSCLEAYGAPEQVDDFWSTALQAKSVAVKTTRFASFPDYLVIQIKKFTFGLDWVPKKLDVSIEMPEELDISQLRGTGLQPGEEELPDIAPPLVTPDEPKGSLGFYGNEDEDSFCSPHFSSPTSPMLDESVIIQLVEMGFPMDACRKAVYYTGNSGAEAAMNWVMSHMDDPDFANPLILPGSSGPGSTSAAADPPPEDCVTTIVSMGFSRDQALKALRATNNSLERAVDWIFSHIDDLDAEAAMDISEGRSAADSISESVPVGPKVRDGPGKYQLFAFISHMGTSTMCGHYVCHIKKEGRWVIYNDQKVCASEKPPKDLGYIYFYQRVAS
notes: Homo sapiens ubiquitin specific peptidase 5 (USP5), open reading frame of GenBank NM_001098536 in pcDNA3.1, point mutant made by PCR; also called SUMO-resistant USP5-K113R; SUMO2/3 resistant USP5-K113R mutant; source: tsA-201 cells, transfected (lipofectamine 2000), in lysate; not shown: mCherry, N-terminal, kept
B1 was tested. Which “fold change of co-precipitated amount against USP5-WT” value did it give?
Its value is ~2.2 fold.
